Assay results from patent US20240109955A1.
Read-outs that look alike come from different tables or passages of the source.

Tests used:
Assay in all cases: cell-based or functional assay
[1] = molecular target: SARS-CoV-2 spike (S) protein, Omicron variant BA.4/5 (SARS-CoV-2) (UniProt P0DTC2)
[2] = molecular target: SARS-CoV-2 spike (S) protein, Iota variant (B.1.526) (SARS-CoV-2) (UniProt P0DTC2)
[3] = molecular target: SARS-CoV-2 spike (S) protein, Omicron variant BA.1 (SARS-CoV-2) (UniProt P0DTC2)
[4] = molecular target: SARS-CoV-2 spike protein, Delta variant (B.1.617.2) (SARS-CoV-2)
[5] = molecular target: SARS-CoV-2 spike (S) protein, Lambda variant (C.37) (SARS-CoV-2) (UniProt P0DTC2)
[6] = molecular target: SARS-CoV-2 spike (S) protein, C.1.2 variant (SARS-CoV-2) (UniProt P0DTC2)
[7] = molecular target: SARS-CoV-2 Omicron BA.4.6 spike protein (R346T, F486V) (SARS-CoV-2) (UniProt P0DTC2)
[8] = molecular target: SARS-CoV-2 spike (S) protein, Omicron variant BA1.1.529 (SARS-CoV-2) (UniProt P0DTC2)
[9] = molecular target: SARS-CoV-2 spike (S) protein, Omicron variant BA.2.12.1 (SARS-CoV-2) (UniProt P0DTC2)
[10] = molecular target: SARS-CoV-2 spike protein, Beta variant 1 (B.1.351.v1) (SARS-CoV-2)
[11] = molecular target: SARS-CoV-2 spike protein, Alpha variant (B.1.1.7) (SARS-CoV-2)
[12] = molecular target: SARS-CoV-2 spike protein, Gamma variant (P.1) (SARS-CoV-2)
[13] = molecular target: SARS-CoV-2 spike (S) protein, Mu variant (B.1.621) (SARS-CoV-2) (UniProt P0DTC2)
[14] = molecular target: SARS-CoV-2 spike (S) protein, Omicron variant BA.2 (SARS-CoV-2) (UniProt P0DTC2)
[15] = molecular target: SARS-CoV-2 spike protein, Omicron variant BA1.1.529 (SARS-CoV-2) (UniProt P0DTC2)
[16] = molecular target: SARS-CoV-2 spike protein, Omicron variant BA.2.12.1 (SARS-CoV-2) (UniProt P0DTC2)
[17] = molecular target: SARS-CoV-2 spike protein, Omicron variant BA.2 (SARS-CoV-2) (UniProt P0DTC2)
[18] = molecular target: SARS-CoV-2 spike protein, Omicron variant BA.1 (SARS-CoV-2) (UniProt P0DTC2)
[19] = molecular target: SARS-CoV-2 spike protein, Omicron sublineage BA.1.1 (R346K) (SARS-CoV-2) (UniProt P0DTC2)
[20] = molecular target: SARS-CoV-2 spike protein, Omicron sublineage BF.7 (R346T, F486V) (SARS-CoV-2) (UniProt P0DTC2)
[21] = molecular target: SARS-CoV-2 spike protein, Omicron sublineage BA.4.6 (R346T, F486V) (SARS-CoV-2) (UniProt P0DTC2)
[22] = molecular target: SARS-CoV-2 spike protein, Omicron sublineage BA.4.7 (R346S, F486V) (SARS-CoV-2) (UniProt P0DTC2)
[23] = molecular target: SARS-CoV-2 spike protein, Omicron sublineage BQ.1.1 (R346T, K444T, F486V) (SARS-CoV-2) (UniProt P0DTC2)
[24] = molecular target: SARS-CoV-2 spike protein, Omicron sublineage BA.1.1 (R346K) (SARS-CoV-2) (UniProt P0DTC2); remark: listed apart in the source
[25] = molecular target: SARS-CoV-2 spike protein, Omicron variant (B.1.1.529) (SARS-CoV-2) (UniProt P0DTC2)
[26] = molecular target: SARS-CoV-2 spike (S) protein, Alpha variant (B.1.1.7) (SARS-CoV-2) (UniProt P0DTC2)
[27] = molecular target: SARS-CoV-2 spike protein, Omicron variant BA.2.75.2 (SARS-CoV-2)
[28] = molecular target: SARS-CoV-2 Omicron variant BA.4/5 spike protein (SARS-CoV-2)
[29] = molecular target: SARS-CoV-2 spike protein, Omicron variant BA.4/5 (SARS-CoV-2)
[30] = molecular target: SARS-CoV-2 Omicron variant BQ.1.1 spike protein (SARS-CoV-2)
[31] = molecular target: SARS-CoV-2 spike protein, Omicron variant BQ.1.1 (SARS-CoV-2)
[32] = molecular target: SARS-CoV-2 Omicron variant BA.2.75.2 spike protein (SARS-CoV-2)
[33] = molecular target: SARS-CoV-2 spike (S) protein, Omicron sublineage BF.7 (R346T, F486V) (SARS-CoV-2) (UniProt P0DTC2)
[34] = molecular target: SARS-CoV-2 spike (S) protein, Omicron sublineage BQ 1.1 (R346T, K444T, F486V) (SARS-CoV-2) (UniProt P0DTC2)
[35] = molecular target: SARS-CoV-2 spike (S) protein, Omicron sublineage BA.4.7 (R346S, F486V) (SARS-CoV-2) (UniProt P0DTC2)
[36] = molecular target: SARS-CoV-2 spike (S) protein, Omicron sublineage BA.4.6 (R346T, F486V) (SARS-CoV-2) (UniProt P0DTC2)
[37] = molecular target: SARS-CoV-2 spike (S) protein, Omicron sublineage BA.1.1 (R346K) (SARS-CoV-2) (UniProt P0DTC2)
[38] = molecular target: SARS-CoV-2 Omicron variant XBB spike protein (SARS-CoV-2)

A19-46 (antibody), sequence (VH): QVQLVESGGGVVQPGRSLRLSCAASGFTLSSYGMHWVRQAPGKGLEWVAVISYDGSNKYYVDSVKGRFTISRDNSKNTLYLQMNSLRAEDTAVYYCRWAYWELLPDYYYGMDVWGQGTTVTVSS
A19-46 (antibody), sequence (VL): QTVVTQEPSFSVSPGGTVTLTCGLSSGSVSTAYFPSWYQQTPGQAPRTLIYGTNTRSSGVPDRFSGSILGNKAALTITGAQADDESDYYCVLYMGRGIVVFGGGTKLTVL
A19-46.1 (antibody), sequence (VH): as the sequence (VH) above
A19-46.1 (antibody), sequence (VL): as the sequence (VL) above

A19-61.1 (antibody)
pseudovirus neutralization IC50 (nM (inferred)) [1]: 0.128 | pseudovirus neutralization IC80 (nM (inferred)) [1]: 0.322 | pseudovirus neutralization IC50 (nM (inferred)) [2]: 0.0418 | pseudovirus neutralization IC80 (nM (inferred)) [2]: 0.0836 | pseudovirus neutralization IC50 (nM (inferred)) [3]: > 66.7 | pseudovirus neutralization IC80 (nM (inferred)) [3]: > 66.7 | IC50, pseudovirus neutralization [4]: 0.209 nM | IC80, pseudovirus neutralization [4]: 0.292 nM | pseudovirus neutralization IC50 (nM (inferred)) [5]: 0.11 | pseudovirus neutralization IC80 (nM (inferred)) [5]: 0.186 | pseudovirus neutralization IC50 (nM (inferred)) [6]: 8.43 | IC50, pseudovirus neutralization [7]: 540 nM | IC80, pseudovirus neutralization [7]: 2170 nM | pseudovirus neutralization IC50 (nM (inferred)) [8]: > 66.7 | pseudovirus neutralization IC80 (nM (inferred)) [8]: > 66.7 | pseudovirus neutralization IC50 (nM (inferred)) [9]: 0.11 | pseudovirus neutralization IC80 (nM (inferred)) [9]: 0.298 | IC50, pseudovirus neutralization [10]: 0.0686 nM | IC80, pseudovirus neutralization [10]: 0.113 nM | IC50, pseudovirus neutralization [11]: 0.175 nM | IC80, pseudovirus neutralization [11]: 0.325 nM | IC50, pseudovirus neutralization [12]: 0.135 nM | IC80, pseudovirus neutralization [12]: 0.288 nM | pseudovirus neutralization IC50 (nM (inferred)) [13]: 0.264 | pseudovirus neutralization IC80 (nM (inferred)) [13]: 0.43 | pseudovirus neutralization IC50 (nM (inferred)) [14]: 0.0607 | pseudovirus neutralization IC80 (nM (inferred)) [14]: 0.17

A19-46.1 (antibody)
pseudovirus neutralization IC50 (nM (inferred)) [2]: 0.803 | pseudovirus neutralization IC80 (nM (inferred)) [2]: 1.88 | IC50, pseudovirus neutralization [15]: 1.84 nM | IC80, pseudovirus neutralization [15]: 2.84 nM | IC50, pseudovirus neutralization [16]: > 66.7 nM | IC80, pseudovirus neutralization [16]: > 66.7 nM | IC50, pseudovirus neutralization [4]: > 66.7 nM | IC80, pseudovirus neutralization [4]: > 66.7 nM | pseudovirus neutralization IC50 (nM (inferred)) [5]: > 66.7 | pseudovirus neutralization IC80 (nM (inferred)) [5]: > 66.7 | pseudovirus neutralization IC50 (nM (inferred)) [6]: 11.6 | pseudovirus neutralization IC80 (nM (inferred)) [6]: 21 | IC50, pseudovirus neutralization [7]: > 10000 nM | IC80, pseudovirus neutralization [7]: > 10000 nM | IC50, pseudovirus neutralization [10]: 0.807 nM | IC80, pseudovirus neutralization [10]: 2.07 nM | IC50, pseudovirus neutralization [11]: 0.19 nM | IC80, pseudovirus neutralization [11]: 0.486 nM | IC50, pseudovirus neutralization [12]: 0.26 nM | IC80, pseudovirus neutralization [12]: 0.7 nM | IC50, pseudovirus neutralization [17]: 0.69 nM | IC80, pseudovirus neutralization [17]: 2.23 nM | pseudovirus neutralization IC50 (nM (inferred)) [13]: 1.34 | pseudovirus neutralization IC80 (nM (inferred)) [13]: 3.81 | IC50, pseudovirus neutralization [18]: 0.958 nM | IC80, pseudovirus neutralization [18]: 2.28 nM

bebtelovimab (antibody)
IC50, pseudovirus neutralization [19]: 26.4 nM | IC80, pseudovirus neutralization [19]: 65.1 nM | IC50, pseudovirus neutralization [20]: 8.51 nM | IC80, pseudovirus neutralization [20]: 24.5 nM | IC50, pseudovirus neutralization [21]: 11.5 nM | IC80, pseudovirus neutralization [21]: 28.1 nM | IC50, pseudovirus neutralization [22]: 11.4 nM | IC80, pseudovirus neutralization [22]: 22.4 nM | IC50, pseudovirus neutralization [23]: > 10000 nM | IC80, pseudovirus neutralization [23]: > 10000 nM | IC50, pseudovirus neutralization [24]: 26.4 nM | IC80, pseudovirus neutralization [24]: 65.1 nM | IC50, pseudovirus neutralization [25]: 0.32 nM | IC80, pseudovirus neutralization [25]: 15.6 nM | IC80, pseudovirus neutralization [7]: 1 nM

LY-CoV555 (antibody)
pseudovirus neutralization IC50 [26]: 0.0145 nM | pseudovirus neutralization IC80 [26]: 0.0361 nM | pseudovirus neutralization IC50 [3]: > 67 nM | pseudovirus neutralization IC80 [3]: > 67 nM | pseudovirus neutralization IC50 [14]: > 67 nM | pseudovirus neutralization IC80 [14]: > 67 nM

B1-182.1 (antibody)
pseudovirus neutralization IC50 (nM (inferred)) [1]: > 66.7 | pseudovirus neutralization IC80 (nM (inferred)) [1]: > 66.7 | IC50, pseudovirus neutralization [24]: 213 nM | IC80, pseudovirus neutralization [24]: 1300 nM | IC50, pseudovirus neutralization [25]: 401 nM | IC80, pseudovirus neutralization [25]: 1020 nM | pseudovirus neutralization IC50 (nM (inferred)) [2]: 0.0639 | pseudovirus neutralization IC80 (nM (inferred)) [2]: 0.183 | pseudovirus neutralization IC50 (nM (inferred)) [3]: 1.03 | pseudovirus neutralization IC80 (nM (inferred)) [3]: 4.44 | IC50, pseudovirus neutralization [4]: 0.0099 nM | IC80, pseudovirus neutralization [4]: 0.0254 nM | pseudovirus neutralization IC50 (nM (inferred)) [5]: 0.0049 | pseudovirus neutralization IC80 (nM (inferred)) [5]: 0.015 | pseudovirus neutralization IC50 (nM (inferred)) [6]: 0.0549 | pseudovirus neutralization IC80 (nM (inferred)) [6]: 0.11 | pseudovirus neutralization IC50 (nM (inferred)) [8]: 2.55 | pseudovirus neutralization IC80 (nM (inferred)) [8]: 6.47 | pseudovirus neutralization IC50 (nM (inferred)) [9]: 0.739 | pseudovirus neutralization IC80 (nM (inferred)) [9]: 5.92 | IC50, pseudovirus neutralization [10]: 0.0357 nM | IC80, pseudovirus neutralization [10]: 0.139 nM | IC50, pseudovirus neutralization [11]: 0.0262 nM | IC80, pseudovirus neutralization [11]: 0.0844 nM | IC50, pseudovirus neutralization [12]: 0.0182 nM | IC80, pseudovirus neutralization [12]: 0.0429 nM | pseudovirus neutralization IC50 (nM (inferred)) [13]: 0.0695 | pseudovirus neutralization IC80 (nM (inferred)) [13]: 0.219 | pseudovirus neutralization IC50 (nM (inferred)) [14]: 2.12 | pseudovirus neutralization IC80 (nM (inferred)) [14]: 8.5

A19-46 (antibody)
IC50, pseudovirus neutralization [27]: > 10 µg/mL | IC80, pseudovirus neutralization [27]: > 10 µg/mL | IC50, pseudovirus neutralization [28]: > 10 µg/mL | IC80, pseudovirus neutralization [28]: > 10 µg/mL | IC50, pseudovirus neutralization [29]: > 10 µg/mL | IC80, pseudovirus neutralization [29]: > 10 µg/mL | IC50, pseudovirus neutralization [30]: 0.386 µg/mL | IC80, pseudovirus neutralization [30]: 1.11 µg/mL | IC50, pseudovirus neutralization [31]: 0.386 µg/mL | IC80, pseudovirus neutralization [31]: 1.11 µg/mL | IC50, pseudovirus neutralization [32]: > 10 µg/mL | IC80, pseudovirus neutralization [32]: > 10 µg/mL

bebtelovimab (LY1404) (antibody)
IC50, pseudovirus neutralization [33]: 16.9 nM | IC80, pseudovirus neutralization [33]: 25.2 nM | IC50, pseudovirus neutralization [34]: > 10000 nM | IC80, pseudovirus neutralization [34]: > 10000 nM | IC50, pseudovirus neutralization [35]: 5.9 nM | IC80, pseudovirus neutralization [35]: 16.1 nM | IC50, pseudovirus neutralization [36]: 22.3 nM | IC80, pseudovirus neutralization [36]: 25.4 nM | IC50, pseudovirus neutralization [30]: > 10 µg/mL | IC80, pseudovirus neutralization [30]: > 10 µg/mL | IC50, pseudovirus neutralization [37]: 26.4 nM | IC80, pseudovirus neutralization [37]: 65.1 nM | IC50, pseudovirus neutralization [32]: 0.00567 µg/mL | IC80, pseudovirus neutralization [32]: 0.0207 µg/mL | IC50, pseudovirus neutralization [38]: > 10 µg/mL | IC80, pseudovirus neutralization [38]: > 10 µg/mL
